These results are taken from article PMC6823245, “Positive Modulation of Angiotensin II Type 1 Receptor–Mediated Signaling by LVV–Hemorphin-7” (Frontiers in Pharmacology, 2019).

Data set [1] has as its system AT1R. The conditions noted are these: ref Li et al., 2018, cited from earlier work. From the text: Our seminal finding is of significant importance to hemorphin and GPCR pharmacology and their implication in human physiology. Indeed, in addition to hemorphin’s effect on opioid receptors ([Brantl et al., 1986]; [Davis et al., 1989]; [Liebmann et al., 1989]; [Glämsta et al., 1992]; [Yukhananov et al., 1994]; [Nyberg et al., 1997]; [Szikra et al., 2001]; [Cheng et al., 2012]), we report yet another GPCR member (AT1R) that is a target of hemorphins with the plausible implication in the physiology and pathophysiology of vascular and renal systems. The action of LVV–hemorphin-7 on AT1R is consist ...

The conditions of data set [2]: among hemorphin peptides; ref not attached to the sentence (next sentence: Karelin et al., 1994; Moeller et al., 1997); cited from earlier work. The text has this:
Hemorphins are endogenous hemoglobin-derived peptides that were initially reported to have opiate-like activity. They are normally released from hemoglobin beta-chain during physiological or pathophysiological conditions. These peptides are 4 to 10 amino acids long and share a common Tyr-Pro-Trp-Thr tetrapeptide core (YPWT or hemorphin-4) ([Liebmann et al., 1989]; [Zhao et al., 1995]; [Ivanov et al., 1997]; [Nyberg et al., 1997]). A number of different hemorphin peptides have been identified including hemorphin-4, hemorphin-7, and LVV–hemorphin-4, -6, and -7 ([Brantl et al., 1986]; [Piot et al ...

Data set [3] concerns the target T1, AT1R (AT1R-Rluc/Venus-Gαq coupling) (Homo sapiens, UniProt P30556).
T1 sequence (P30556 1-359): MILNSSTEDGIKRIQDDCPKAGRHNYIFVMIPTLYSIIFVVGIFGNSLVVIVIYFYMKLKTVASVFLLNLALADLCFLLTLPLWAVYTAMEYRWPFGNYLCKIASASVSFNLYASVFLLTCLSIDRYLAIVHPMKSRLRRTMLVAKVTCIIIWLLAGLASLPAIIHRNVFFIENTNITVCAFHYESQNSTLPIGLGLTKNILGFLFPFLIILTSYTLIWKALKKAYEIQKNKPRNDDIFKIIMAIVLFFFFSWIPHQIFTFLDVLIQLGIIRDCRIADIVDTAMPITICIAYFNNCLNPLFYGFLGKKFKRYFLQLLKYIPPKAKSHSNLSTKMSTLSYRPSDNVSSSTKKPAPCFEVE
Description: Real-time BRET kinetics, AT1R-Rluc and Venus-Gαq in HEK293 cells. The settings on record: 10 µM alone, sequential protocol, after 35 min (Figure 3C).
Description: (§1) HEK293 cells were maintained at 37°C, 5% CO2 in complete medium (Dulbecco modified Eagle medium (DMEM) containing 0.3 mg/ml glutamine, 100 IU/ml penicillin, and 100 µg/ml streptomycin) supplemented with 10% fetal calf serum (GIBCO BRL, Carlsbad, CA, USA). Transient transfections for BRET were carried out in 96-well plates and IP1 and ERK1/2 assays in six-well plates using Lipofectamine 2000 (Invitrogen). […] The plasmid solution was then mixed with 25 µl of serum-free DMEM containing 0.5 µl of Lipofectamine 2000 and incubated for 20 min at room temperature. Cells (10^5 in 150 µl/well) resuspended in DMEM supplemented with 10% fetal calf serum (FCS) were then incubated with the final DNA-Lipofectamine 2000 mix (50 µl/well) and seeded in 96-well plates. All assays were carried out 48 h posttransfection.
For the real-time BRET kinetics, different protocols were used. Cells were first washed with 50 µl/well of PBS and resuspended in 40 µl/well of PBS containing coelenterazine h (5 µM), and BRET signals were measured in real time for ∼5 min to determine the baseline.
All kinetic and the sigmoidal dose–response curves were fitted to appropriate nonlinear regression equations using GraphPad Prism software (San Diego, CA, USA). Statistical analyses were performed with two-way ANOVA and Tukey multiple-comparisons test to determine statistical significance between the different conditions.

In data set [4] the target is T1, AT1R (AT1R-Rluc/Venus-Gαq coupling). Description: BRET between AT1R-Rluc and Venus-Gαq (dose-response / 30 min endpoint) in HEK293 cells. More on the design: expressed in transfected cells; host or cells: HEK293, transient transfection (Lipofectamine 2000). The data set is classed as cell-based. Here is the method: All assays were carried out 48 h posttransfection.
BRET technology was used for dose–response analysis as previously described ([Ayoub et al., 2015]; [Ayoub, 2016]; [Ayoub et al., 2016]). […] Following treatment, 10 µl of coelenterazine h (Promega) in PBS was added to a final concentration of 5 µM, and BRET measurements were carried out using the Tristar 2 multilabel plate reader (Berthold, Germany) allowing sequential measurements of light emission at 480 and 540 nm.
In general terms: In BRET a luciferase serves as donor, and the signal depends on an acceptor being close.

Data set [5] deals with T2, AT1R (AT1R-WT) (Homo sapiens, UniProt P30556).
T2 sequence (P30556 1-359): T1 sequence (P30556 1-359)
The settings on record: 10 µM irbesartan 15 min, then 5 nM AngII ± 10 µM LVV–hemorphin-7, 30 min, 37°C (Figure 5D).
Description: as §1
Measurement of IP1 accumulation was performed in HEK293 cells expressing either AT1R-Rluc with Venus-Gαq like for BRET assays or untagged AT1R (AT1R-WT) alone using the IP-One Tb kit (Cisbio Bioassays, France) according to manufacturer’s instructions. […] The cells were then lysed by adding the supplied assay reagents, and the assay was incubated for 1 h at room temperature. Fluorescence emission was measured at 620 and 665 nm, 50 µs after excitation at 340 nm using the Tristar 2 multilabel plate reader (Berthold, Germany). […]

Data set [6] addresses AT1R-RlucII (angiotensin II type 1 receptor fused to Renilla luciferase) (human) (UniProt P30556).
Data set [7] addresses untagged AT1R (AT1R-WT) (human) (UniProt P30556).
Data set [8] addresses AT1R-RlucII (angiotensin II type 1 receptor fused to Renilla luciferase) (human) (UniProt P30556). This is another data set of the same source.
Data set [9] has the same target. This is another data set of the same source.
For data set [10] the target is unchanged. This is another data set of the same source.

`NC(CCS)C(=O)O` (centres unmarked) [homocysteine]: the “binding site on AT1R” value in [1] (binding experiments) is on record as “binding of homocysteine to the orthosteric binding site of AT1R”. In data set [1], the “positive allosteric modulation of AT1R” value is “PAM of AT1R”.

For `CC(C)C[C@H](N)C(=O)N[C@H](C(=O)N[C@H](C(=O)N[C@@H](Cc1ccc(O)cc1)C(=O)N1CCC[C@H]1C(=O)N[C@@H](Cc1c[nH]c2ccccc12)C(=O)N[C@H](C(=O)N[C@@H](CCC(N)=O)C(=O)N[C@@H](CCCNC(=N)N)C(=O)N[C@@H](Cc1ccccc1)C(=O)O)[C@@H](C)O)C(C)C)C(C)C` [LVV–hemorphin-7], the stability entry in data set [2] is “most stable form”. Further, the “BRET increase, LVV–hemorphin-7 alone” value in [3] is around 10%. Besides, the “EC50 of potentiation of AngII-mediated BRET (in words)” value in data set [4] (15 min preincubation, then 10 nM AngII 20 min (Figure 2E)) was “micromolar range”.

With `CCCCC1=NC2(CCCC2)C(=O)N1Cc1ccc(-c2ccccc2-c2nnn[nH]2)cc1` [irbesartan], the “inhibition of AngII-mediated IP1 production and its potentiation by LVV–hemorphin-7” value in data set [5] is recorded as “completely abolished”. Further, the “inhibition of AngII-mediated BRET signals and of their potentiation by LVV–hemorphin-7” value in data set [4] (10 µM irbesartan 15 min, then 10 nM AngII ± 10 µM LVV–hemorphin-7, 30 min, 37°C (Figure 4A), n = 3) is on record as “full inhibition”.

LVVYPWTQRF [LVV–hemorphin-7] yielded a BRET increase in sequential real-time kinetics (AT1R-Rluc with Venus-Gαq or yPET–β-arrestin 2), 10 µM LVV–hemorphin-7 alone, after 35 min in [6] of 10%. For the same molecule, in data set [7], the ERK1/2 phosphorylation (folds over untreated cells), cells expressing AT1R-WT, 10 µM LVV–hemorphin-7 alone, 5 min worked out at 6.74 folds; the ERK1/2 phosphorylation (folds over untreated cells), cells expressing AT1R-WT, cotreatment with AngII and LVV–hemorphin-7 was determined as 12.8 folds. In data set [8], the ERK1/2 phosphorylation (folds over untreated cells), cells coexpressing AT1R-Rluc and Venus-Gαq, cotreatment with 10 nM AngII and 10 µM LVV–hemorphin-7 for 5 min turned out to be 6.71 folds; the ERK1/2 phosphorylation (folds over untreated cells), cells coexpressing AT1R-Rluc and Venus-Gαq, pretreatment with LVV–hemorphin-7 for 15 min followed by AngII for 5 min was found to be 6.7 folds. In data set [9], the Log EC50 of LVV–hemorphin-7 for potentiation of the BRET increase between AT1R-Rluc and Venus-Gαq induced by 10 nM AngII (log (concentration unit not given)) was -5.41; the Log EC50 of LVV–hemorphin-7 for potentiation of the BRET increase between AT1R-Rluc and yPET–β-arrestin 2 induced by 10 nM AngII (log (concentration unit not given)) was -5.48. Further, in data set [10], the E max (%) of AngII with LVV–hemorphin-7, BRET dose–response, AT1R-Rluc + Venus-Gαq; AngII without LVV–hemorphin-7 taken as 100% was found to be 109%; the E max (%) of AngII with LVV–hemorphin-7, BRET dose–response, AT1R-Rluc + yPET–β-arrestin 2; AngII without LVV–hemorphin-7 taken as 100% is 104%; the E max (%) of AngII with LVV–hemorphin-7, BRET kinetics 1 (Figures 3A, B), AT1R-Rluc + Venus-Gαq; 10 nM AngII alone taken as 100% worked out at 263%; the E max (%) of AngII with LVV–hemorphin-7, BRET kinetics 1 (Figures 3A, B), AT1R-Rluc + yPET–β-arrestin 2; 10 nM AngII alone taken as 100% was 240%. Moreover, in data set [10], the E max (%) of AngII with LVV–hemorphin-7, BRET kinetics 2 (Figures 3C, D), AT1R-Rluc + Venus-Gαq; 10 nM AngII alone taken as 100% was 171% and the E max (%) of AngII with LVV–hemorphin-7, BRET kinetics 2 (Figures 3C, D), AT1R-Rluc + yPET–β-arrestin 2; 10 nM AngII alone taken as 100% was determined as 200%.
